Reference: the nanobody polyreactivity screen of Harvey et al. (2022)

Experiment: yeast display, Sf9 membrane polyspecificity reagent, FACS + sequencing; frameworks hold sequencing errors
In short: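 Using colony PCR, genes from sorted yeast display clones were amplified, then sequenced on MiSeq at 2 × 250 and filtered by CDR length. The clones had been stained with 10% biotinylated, detergent-solubilized Sf9 membrane reagent for 1 hour at 4 °C and sorted by FACS into low and high (top ~1%) gates on anti-HA and streptavidin fluorescence. Polyreactivity labels come from the gate of origin.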

Row | Sequence | polyreactivity (PSR sort gate)
1 | QVQLLESGGGLVQAGGSLRLSCAASRRIIYGYAMGWYRQAPGKERELVAAITATYYADSVKGRFTISRDNPKNTVYLLMNSLKAVDTAVYYCNAYLSPKQPLSPQDPTFEGGYWGQCTQVTVSS | low polyreactivity
2 | QVQLVESGGGLVQAGGSLRLSCAASGFIFDTYAMGWYRQAPGKERELVAAISRSGVRTYYADSVKGRFTISRDNAKNTVYLQMNSLTPEDTAVYYCNAALNRYHFGRAVPGDYWGQGTQVTVSS | high polyreactivity
3 | QVQLVESGGGLVQAGGSLRLSCAASGITGHNAMGWYRQAPGKERELVARISSGGRTNYADSVKGRFTISRDNAKNTVYLKMNSLKPEDTAVYYCAAGFRVGSFLRYNYWGQGTKVTVSS | high polyreactivity
4 | QVQLVESGGGLVQAVGSLRLSCAASGSIFGGYAMGWYRQAPGKERELVAAITYSGGSTYYADSVKGRFTISRDNAKNTVYLQMNSLKPEDTAVYYCAAESYDPYYEYDYWGQGTQVTVSS | high polyreactivity
5 | QVQLVEAGGGLVQAGGSLRLSCAASGITCRNDAIGWYRQAAGKERELVADITTGGSTYADSVKGRFTISRDNAKNTVYLQLISLKPEDTAVYYFAADRDFRTPRLYYWGQGTQVTVSS | low polyreactivity
6 | QVQLVESGGGLVQAGGRLRLTCAASGRIFFWYVMGWYRQATGKERELVAAISSGGRTYYADAVKGRFTISRDNAKNTVYLQMNSLKPEDTAVYYCNVEEYHVRADIGYSNYGYWGQGTQVTVSS | low polyreactivity
7 | QVQLVESGGGLVQAGGSLRLSCAASGRIFSVYAMGWYRQAPGKERELVAAITRVGSTNYADSVKGRFTISRDNAKNTVFLLMNSLKQEDTAVYYCARTYSTRGYYYWGQGTQVTVSS | high polyreactivity
8 | QVKLVESGGGLVQAGGSLRLSCAASGRTFGSYAMGRYRQAPGKERELVAAITTDASTNYADSVKGRFTISRDNAKNTIYLQMNSLKPEDTAVYYCAKRNRTYYGYWGQGTQVTVSS | low polyreactivity
9 | QVQLVESGGGLVQAGGSLRLSCAASGRIFDSYAMGWYRQAPGKERELVATISWDSATTYYADSVKGRFTISRDNAKNTVYLQMNSLKPEDTAVYYCNTRDLYGYPQVTGYDYWGQGTQVTVSS | low polyreactivity
10 | KVQLVESGGGLVQAGGSLRLSCAASGSTFIGNAMGWYRQAPGKERELVAAISRTGGSTYADSVKGRFTISRDNAKNTVYLQMNSLKPEDTAVYYCNAVRWYYDYWGQGTQVTVSS | high polyreactivity
11 | QVQLVESGGCLVQAGGSLSLSCAHSGGNFTFYAMVWYTQAPGKERELVATINWSGGSTYYADSVKGRFTISRDNAKITVYLQMNSLKPADTAVYYCNAAWPYKSVEYWGHGTQVTVSS | low polyreactivity
12 | QVQLVESGGGLVQAGGSLSLTCAASGSSFWPYAMGWYRQAPGKELELVAASTTRDGSTYYADSVKGRFTISRDNAKNTVYLQMISLKTEDTAVYYSAAVVLRDGWWGYYYWGQGTQVTVSS | high polyreactivity
13 | QVQLVESGGGLVQAGGSLRLSCAASGSIRSYAMGWYRQAPGKERELVAAITRSGGSTYYADSVKGRFTLSRDNAKNSVYLQMNSLKPEDTAVYYCAARYTYSYPYYRYNYWGQGTQVTVSS | high polyreactivity
14 | QVQLVESGGGLVQAGGSLRLSCAASGLIFLGNAMGWYRQAPGKERELVAAISRSGGTTYYADSVKGRFTISRDNAKNTVYLQMNSLKPEDTAVYYCNAYNPYYRATVSSRGYGYWGQGTQVTVSS | high polyreactivity
15 | QVQLVESGGGLVQAGGSLRLSCAASGYTFEVYAMGWYRQAPGKERELVADITTRTGNTYYADSVKGRFTISRDNAKNTVYLQMNSLKPEDTAVYYCAADLQRYWWWYEYWGQGTQVTVSS | high polyreactivity
16 | QVQLVESGGGLVQAGGSLRLSCAASGYTFINYAMGWYRQAPGKERELVAAITSTGSRTYYADSVKGRFTITRDNAKNTVYLQMNSLKPEDPAVYYCAAQVDRKYRWFNSWGQGTQVNVSS | high polyreactivity
17 | QVQLVESGGGLDQAGGSLPLTCAASGRTFWGNAMGWYRQAPGQERELVAGISKSGGTTYADSVKGRFTISRDNAKNTVYLEMNRLKPEDTAVYYCAAGGWWWTIPYEYWGQGTKVTVSS | high polyreactivity
18 | QVQLVESGGGLVQAGGSLRLSCAASGITFDDNAMAWYRQAPGKERELVATISDGGRTYYADSVKGRFTISRDNAKNTVFLQMNILKPEDTGVYYCAAGYPYYHVYGYGYWGQGTLVTVSS | low polyreactivity
19 | QVQLQESGGGLVQAGGTLRLSCAASGSFSADEDMGWYRQAQGKEREFVAGISVGGNTNYADSVKGPFTISRENAKNTVYLQINSLKPEDTAVYYCAVLQDVYDALDFWAQGTQVTVSS | high polyreactivity
20 | QVQLVESGGGLVQAGGSLRLSCAASGTIFGGYGRGWYRQAPGKERELVAAITSGSSTYYADSVKGRFTISRDNAKNTVYLQMNSLKPEDTAVYYCAARPFPHSAYEGDYWGRGTQVTVSS | low polyreactivity
21 | QVQLVESGGGLVQAGGSLRLSCAASGLIFEEYAMGWYRQAPGKERELVAGIDSSGSTNYADSVKGRFTISRDNAKNTVYLQMNSLKPEDTAVYYCTARGYYPRWYYVFRGNYWGQGTQVTVSS | low polyreactivity
22 | QVQLVESGGGLDQAGGSLRLSCAASGSTFTKNVMGWYRQAPGKERELVAAISSGGRTNYADSVKGRFTISRDNAKNTVYLQMNSLKPEDTAVYFCAADVGYFKSDYWGQGTQVTVSS | low polyreactivity

Row | Sequence | polyreactivity (PSR sort gate)
23 | QVQLVESGGGLVQSGGSLRLSCAASGSIFNLYAMGWYRQAPGKERELVAAINWSGGSTYYADSVNGRFTISRDNAKNTVYLQMNRLKPEDTAVSYCAADAYSTYYGYEGVYWGQGTQVTVSS | low polyreactivity
24 | QVQLVESGGGLDQAGGSLRLSCAASGRISIRNAMGWYRQAPGKETELVAAISRSGGSTYYADSLKGRFTISRDNAKNTVYLQMNSLKPEDTAVYYCAARGYSTYPMDYWGQGTQVTVSS | high polyreactivity
25 | QVQLVESGGGLVQAGGSLRLSCVASGRIFARNAMGWYRQAPGKERELVAAISGSGVRTYYADSVKGRFTISRDNAKNTVYLQMNSLKPEDTAVYYCNAVSGGHRSRYGYWGQGTQVTVSS | high polyreactivity
26 | QGQLVESVGGLVQAGGSLRLSCAASGSIFGWYVMGWYRQAPGQERELVAAISSVGSTYYADSVKGRFTISLDNAKNTVYLQMNSLKAEDTAVYYCAKLRYPYLFWDDSEYWGQGTQVTVSS | low polyreactivity
27 | QVQLVESGGGLVQAGGSLRLSCAASGSTFFHYAMGWYRQAPGKERELVAAISTGGTTYYADSVKGRFTISRDNAKNTVYLQMNSLKPEDSAVYYCAAEAYGLSGLYYYWGQCTQVTVSS | high polyreactivity
28 | QDQLVESGGGLDQAGGSLRLSCAASGNTFWPYAMGWYRQAPGKESEFVAAITFRGGSTYYADSVKGRFTISRDNAKNTVYLQMNSLKPEDTAVYYCNAERGVWSGYFGYDYWGQGTQVTVSS | low polyreactivity
29 | QVQLVESGAGLVEAGASLRLSCAASGSNFRINAMGLYRQAPGKERELVAAITASGGSTYADSVKGRFTISRDNAKNTVYLQMNSLKPEDTAVYDCAARYFPRHRYYFWGQVTQVTVSS | high polyreactivity
30 | QVQLVESGGGLVQAGGSLRLSCAASGYNFYRYAMGWYRQAPGKEMELVATIRSGGSTNYADSVKGRFTISRDNAKNTVYLQMNSLKPEDTAVYYCAKVRGWYDPYTYGYSEYGYWGQGTQVTVSS | low polyreactivity
31 | QVQLVESGGGLVQAGGSLRLSCAASGRTFIVNTMGWYRQAPGKERELVAAITARGGRTYYADSVKGRFTISRDNAKNTVYLQMNSLKPEDTAVYYCNARTPPREAERYYWGQGTQVTVSS | low polyreactivity
32 | QVQLVESGGGLVQAGGSLRLSCAASGFIFFGEYVMGWYRQAPGKEREFVAAISRSSATTYYADSVKGRFTISRDTAKNTVYLQMNSLKPEDTAVYYCNAGDLGRRWGMDYWGQGTQVTVSS | low polyreactivity
33 | QVQLVESGGGLVQAGGSLRLSCSASGRTFDGYAMVWYRQAPGKEREMVASITRGGGSTYYADSVKGRFTISRDNAKNTVYLQMNSLKPEDTAVYYCATSDRQVKYDYWGQGTQVTVSS | low polyreactivity
34 | QVQLVESGGGLVQAGGSLRLSCAASGRTFIRYTTGWYRQAPGTERELVAAITSTGRTYYADSVKGRFTISRDNAKNTVYLQMNSLKPEDTAVYYCAAEAGYGDYYYGYDYWGQGTQVTVSS | low polyreactivity
35 | QVQLVESGGGLVQAGGSLRLSCAASGRIFGYNAMGWYRQAPGKERELVAAISSSGGSTYYADSVKGRFTISRDNAKNTVYLQMNSLKPEDTAVYYCAARRVTRTTVYRYQYYYWGQGTQVTVSS | high polyreactivity
36 | QVQLVESGGGLVQAGGSLRLSCAASGRIFDWYAMGWYRQAPGKERELVAAITTSADRTYYADSVKGRFTISRDNAKNTVYLQMNSMKPEDTAVYYCNADAFGGYDEYDYWGQGTQVTVSS | low polyreactivity
37 | QVQLVESGGGLVQAGGSLRLSCAASGSTFLYYTMGWYRQAPGKERELVAAITNGGGSTYYADSVKGRFTISRDNAKNTVYLQMNSLKPEDTAVYYCNAPTVKYRLGYDYWGQGTQVTVSS | high polyreactivity
38 | QVQLVESCGGLVQAGGSLRLSCAASGSISYYYAMGWYRQAPGKERELVAAITRTGTTNYADSVKGRFTISRDNAKNTVYLQMNSLKPEDTAVYYCAKRSTGRLQSYNYWGQGNQVTVSS | low polyreactivity
39 | QVQLVESGGGLVQAGGSLRLSCAASGLTFYGNAMGWYRQAPGKERELVAAISRGGRTYYADSVKGRFTISRDNAKNTVYLQMNSLKPEDTAVYYCATVVSRGKQPFDMDYWGQGTQVTVSS | low polyreactivity
40 | QVQLVESGGGLVQAGGSLRLSCAASGSIFPGYVMGWYRQAPGTERELVAAISWSGGSTYYADSVKGRFTISRDNAMNTVYLQLNSLKPEDTAVYYWAADYSYYHGPSRHKHDYWGQGTQVTVSS | low polyreactivity
41 | QVQLVESGGGLVQAGGSLRLSCAASGFIFRYYAMGWYRQAPGKERELVAAISWSGGSTYYADSVKGRFTISRDNAKNTVYLQMNSLKPEDTAVYYCNAVTTYGEYDYWGQGTQVTVSS | high polyreactivity
42 | QVQLVESGGGLVQAGGSLRLSCAASGFIFRYYAMGWYRQAPGKERELVATISSGGGTHYADSVKGRFTISRDNAKNTVYLQMNCLKPEDTAVYYCNKVSYRRRSVLLHYDYWGQGTQVTVSS | high polyreactivity
43 | QVQLVESGGGLVQAGGSLRLSCAASGGIFSSYAMGWYRQAPGKERELVATITSRGGSTYYADSVKGRFTISRDNAKNTVYLQMNSLKPEDTAVYYCAKEYRYYRRRYDYWGQGTQVTVSS | high polyreactivity
